{"source": "patent US20210139593A1", "about": "(UNIVERSIDAD DE CHILE, published 2021)", "binders": {"B1": {"name": "anti-MICA scFv protein (scFv-aMICA) (scFv)", "scFv": "EFGVVMTQSPDFQSVTPKEKVTITCRASQSIGRSIHWYQQKPDQSPKLLVMYASQSFSGVPSRFSGSGSGTDFTLTINSLEAEDAATYYCHQSYSVPRSFGQGTKLEIKRTVAAGGSSRSSSSGGGGSGGGGQVQLQESGPGLVKPSQTLSLTCTVSGDSVRSAYSSWNWIRQPPGKGLEWIGQIHPNGNTYYNPSLMSRITVSIDTSKNQFSLKLDSVTAADTAVYFCATEGVTSESGSFDIWGQGRMVIVSSASTKGPSVAS", "notes": "Monomeric soluble scFv produced from the phagemid pUCH1 Amber; also called scFv-MICA"}}, "biological_target": "T1, recombinant MICA (rMICA) (UniProt Q29983 24-307, limits assumed)", "T1 construct": "Recombinant MICA coated on ELISA plates", "T1 sequence (looked up)": "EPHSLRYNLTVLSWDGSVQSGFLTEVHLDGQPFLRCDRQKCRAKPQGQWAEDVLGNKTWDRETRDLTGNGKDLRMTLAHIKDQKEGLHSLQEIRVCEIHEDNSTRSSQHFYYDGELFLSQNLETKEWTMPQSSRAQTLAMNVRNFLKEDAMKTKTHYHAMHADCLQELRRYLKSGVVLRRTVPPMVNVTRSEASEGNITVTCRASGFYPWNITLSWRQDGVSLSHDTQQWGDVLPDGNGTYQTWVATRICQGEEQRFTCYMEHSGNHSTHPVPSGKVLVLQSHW", "test": "method not stated", "data": [{"binder": "B1", "values": [{"measurement": "Ka", "result": "7.4e+06", "unit": "M⁻¹"}, {"measurement": "Kd", "result": 135, "unit": "nM"}]}]}
